Numbering of substitutions follows the chain as printed.
B1: Exemplified Antibody 1 (antibody, human IgG4 S228P, kappa, F234A L235A, V domains shown)
VH: QVQLVQSGAEVKKPGASVKVSCKASGYTFTDYNMHWVRQAPGQGLEWMGYIYPYNGDTGYNQNFKSRVTMTRDTSTSTVYMELSSLRSEDTAVYYCARGLIYYGYLNVAMDSWGQGTLVTVSS
VL: DIQMTQSPSSLSASVGDRVTITCRASQSIGTRIHWYQQKPGKAPKLLIYFASESISGVPSRFSGSGSGTDFTLTISSLQPEDFATYYCQQSKIWPTTFGGGTKLEIKR
notes: Humanized antibody, full LC (kappa) and HC (IgG4)
B2: Exemplified Antibody 3 (antibody, human IgG4 S228P, kappa, F234A L235A, V domains shown)
VH: B1 VH with N55S
VL: B1 VL with W94G
notes: as for B1
B3: Exemplified Antibody 2 (antibody, human IgG4 S228P, kappa, F234A L235A, V domains shown)
VH: B1 VH with T30G, I101V, Y102H
VL: B1 VL with Q27R, E53G, W94F
notes: as for B1
B4: Exemplified Antibody 4 (antibody, human IgG4 S228P, kappa, F234A L235A, V domains shown)
VH: B1 VH with T30Y, Y102H
VL: B1 VL with Q27R, E53G, W94F
notes: as for B1
B5: Exemplified Antibody 5 (antibody, human IgG4 S228P, kappa, F234A L235A, V domains shown)
VH: B1 VH with N55S
VL: B1 VL with Q27E
notes: as for B1

The binders below were run against T1, human CD11d/CD18 expressed on JY cells (human, UniProt Q13349 18-1161; P05107 23-769) (assay: FACS on JY cells expressing human CD11d/CD18; non-linear regression, one-site binding model).
T1 construct: whole, on cells
T1 sequence (Q13349 18-1161, chain 1 of 2): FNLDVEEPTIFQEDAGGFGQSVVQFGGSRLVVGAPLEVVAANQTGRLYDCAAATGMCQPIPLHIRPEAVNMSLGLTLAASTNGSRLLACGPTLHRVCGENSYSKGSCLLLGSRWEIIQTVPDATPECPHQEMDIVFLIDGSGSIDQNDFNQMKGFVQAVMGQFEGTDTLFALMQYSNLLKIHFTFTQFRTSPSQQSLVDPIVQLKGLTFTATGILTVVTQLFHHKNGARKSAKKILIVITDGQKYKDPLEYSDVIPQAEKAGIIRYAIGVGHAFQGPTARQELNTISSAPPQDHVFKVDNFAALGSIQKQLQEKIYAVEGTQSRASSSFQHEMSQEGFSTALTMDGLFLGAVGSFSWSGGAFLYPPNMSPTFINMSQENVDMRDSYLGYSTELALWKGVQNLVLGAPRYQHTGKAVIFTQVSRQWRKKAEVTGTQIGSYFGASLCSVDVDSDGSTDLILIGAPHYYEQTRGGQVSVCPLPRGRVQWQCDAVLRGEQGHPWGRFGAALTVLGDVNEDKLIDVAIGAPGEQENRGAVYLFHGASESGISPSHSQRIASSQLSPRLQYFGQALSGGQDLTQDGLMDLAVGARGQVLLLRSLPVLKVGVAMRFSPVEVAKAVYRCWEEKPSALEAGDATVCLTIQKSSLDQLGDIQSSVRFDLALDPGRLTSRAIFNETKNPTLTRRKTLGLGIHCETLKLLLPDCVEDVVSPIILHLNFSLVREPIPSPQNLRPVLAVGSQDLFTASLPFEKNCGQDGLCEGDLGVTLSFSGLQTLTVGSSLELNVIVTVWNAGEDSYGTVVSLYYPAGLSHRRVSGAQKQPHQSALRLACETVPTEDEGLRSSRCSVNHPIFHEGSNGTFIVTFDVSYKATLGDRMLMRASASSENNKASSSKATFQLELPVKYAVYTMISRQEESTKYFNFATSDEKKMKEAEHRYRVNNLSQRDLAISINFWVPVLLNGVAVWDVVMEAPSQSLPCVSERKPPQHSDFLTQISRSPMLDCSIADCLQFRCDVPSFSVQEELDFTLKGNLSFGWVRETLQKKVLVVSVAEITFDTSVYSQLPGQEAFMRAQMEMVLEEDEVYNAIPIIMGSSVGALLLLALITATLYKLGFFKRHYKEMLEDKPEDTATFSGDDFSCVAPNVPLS
T1 sequence (P05107 23-769, chain 2 of 2): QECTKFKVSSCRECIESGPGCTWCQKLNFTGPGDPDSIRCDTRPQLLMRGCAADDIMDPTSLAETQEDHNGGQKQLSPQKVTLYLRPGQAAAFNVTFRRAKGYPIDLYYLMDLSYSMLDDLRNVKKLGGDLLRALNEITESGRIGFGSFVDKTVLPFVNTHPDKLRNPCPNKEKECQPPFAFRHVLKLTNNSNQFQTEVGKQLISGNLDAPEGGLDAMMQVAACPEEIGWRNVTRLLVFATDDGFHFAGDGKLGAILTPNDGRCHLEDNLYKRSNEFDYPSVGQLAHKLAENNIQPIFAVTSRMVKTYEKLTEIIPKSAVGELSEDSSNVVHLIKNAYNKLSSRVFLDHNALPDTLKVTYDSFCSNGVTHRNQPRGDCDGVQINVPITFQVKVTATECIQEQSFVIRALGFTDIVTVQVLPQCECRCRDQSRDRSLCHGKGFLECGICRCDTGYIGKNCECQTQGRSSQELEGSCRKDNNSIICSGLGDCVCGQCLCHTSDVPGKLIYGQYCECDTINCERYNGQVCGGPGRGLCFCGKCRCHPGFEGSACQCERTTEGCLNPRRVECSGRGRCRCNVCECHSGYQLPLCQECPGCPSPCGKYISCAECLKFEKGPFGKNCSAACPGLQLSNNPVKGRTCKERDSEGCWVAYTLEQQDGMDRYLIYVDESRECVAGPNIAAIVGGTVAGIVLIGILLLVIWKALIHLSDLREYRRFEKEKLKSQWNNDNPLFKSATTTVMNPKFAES
Protocol: (§1) Binding affinity of the exemplified CD11d antibodies of Table 2 were determined, for both human and rat CD11d, by Fluorescence Activated Cell Sorting (FACS) analysis. JY cells expressing human CD11d/CD18 or JY cells transfected with full-length rat CD11d are suspended in FACS buffer with goat IgG (1 mg/ml). The cell solution is added to wells of 96-well round-bottom plates at a density of 4.0×10⁴ cells in 50 μL solution. Each of the exemplified CD11d antibodies of Table 2 (25 μL) or isotype control antibody (25 μL) is added to a respective well at 1:3 dilutions at final concentrations ranging between 4.6 ng/mL to 10 μg/mL. The plates are incubated on ice for 30 minutes, after which 200 μL of FACS buffer is added, plates are centrifuged at 2000 rpm for 3 minutes, and the liquid is discarded. Cells are re-suspended with 50 μL of a phycoerythrin-conjugated antibody (Jackson ImmunoResearch p/n. 709-116-149) at a 1:150 dilution and incubated on ice for 20 minutes. FACS buffer is added (200 μL) to each well and plates are spun at 2000 rpm for 3 minutes. The liquid is discarded, cells are washed with 200 μL FACS buffer, re-suspended in 120 μL of 1% paraformaldehyde in PBS, and transferred to 96-well flat-bottom plates.
(§2) Stained cells are analyzed by flow cytometry with the gate set on the isotype control antibody. The specific percent gated is calculated as [% gated (test antibody)−% gated (isotype control antibody)]. Kd determinations were made based on a non-linear regression, one-site binding model. Following procedures essentially as described above, binding affinities of the exemplified CD11d antibodies of Table 2 to human and rat CD11d were obtained.
With B1 the Kd was 0.436 nM. Work on B2 yielded a Kd of 0.304 nM. B3 showed a Kd of 0.303 nM. B4 was tested, and the Kd was 0.333 nM. With B5 the Kd was 0.344 nM.

The binders below were run against T2, full-length rat CD11d on transfected JY cells (rat, UniProt Q9QYE7 20-1161) (assay: FACS on JY cells transfected with full-length rat CD11d; non-linear regression, one-site binding model).
T2 construct: whole, on cells
T2 sequence (looked up): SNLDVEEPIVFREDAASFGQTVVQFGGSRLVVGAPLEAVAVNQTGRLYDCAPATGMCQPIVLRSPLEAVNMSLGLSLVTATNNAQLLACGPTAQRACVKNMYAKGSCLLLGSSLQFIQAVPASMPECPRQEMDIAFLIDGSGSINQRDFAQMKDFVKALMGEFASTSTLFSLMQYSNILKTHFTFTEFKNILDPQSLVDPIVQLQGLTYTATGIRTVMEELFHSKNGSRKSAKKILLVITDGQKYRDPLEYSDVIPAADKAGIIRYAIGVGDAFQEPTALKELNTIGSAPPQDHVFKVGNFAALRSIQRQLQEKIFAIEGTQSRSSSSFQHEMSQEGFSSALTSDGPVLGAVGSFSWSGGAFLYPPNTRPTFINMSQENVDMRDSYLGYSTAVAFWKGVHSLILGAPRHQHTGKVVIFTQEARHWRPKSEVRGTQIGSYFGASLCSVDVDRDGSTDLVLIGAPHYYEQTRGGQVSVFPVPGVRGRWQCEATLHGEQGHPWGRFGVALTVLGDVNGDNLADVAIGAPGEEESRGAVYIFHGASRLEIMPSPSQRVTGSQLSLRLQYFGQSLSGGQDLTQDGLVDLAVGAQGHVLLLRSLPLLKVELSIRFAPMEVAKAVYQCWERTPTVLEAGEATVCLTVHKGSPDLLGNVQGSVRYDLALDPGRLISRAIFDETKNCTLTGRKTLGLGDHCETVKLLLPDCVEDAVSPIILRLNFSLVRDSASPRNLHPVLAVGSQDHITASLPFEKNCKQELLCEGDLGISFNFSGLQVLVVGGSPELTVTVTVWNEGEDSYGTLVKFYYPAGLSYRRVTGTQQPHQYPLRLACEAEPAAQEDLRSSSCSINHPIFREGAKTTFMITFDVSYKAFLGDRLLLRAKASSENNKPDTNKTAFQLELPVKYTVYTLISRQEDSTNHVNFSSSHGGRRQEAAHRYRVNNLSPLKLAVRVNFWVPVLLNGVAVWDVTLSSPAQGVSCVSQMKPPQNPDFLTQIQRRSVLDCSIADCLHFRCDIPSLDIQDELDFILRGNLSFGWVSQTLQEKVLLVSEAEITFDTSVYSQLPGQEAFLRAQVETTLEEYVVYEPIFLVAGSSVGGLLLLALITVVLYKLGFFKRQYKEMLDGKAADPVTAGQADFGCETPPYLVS
Protocol: as §1, §2
B1 was tested, and the Kd was 1.45 nM. B2 gave a Kd of 0.677 nM. B3 was tested, and the Kd was 0.133 nM. Work on B4 yielded a Kd of 0.247 nM. Binder B5 has a Kd of 1.18 nM.

Reference: patent US20230183355A1 (UNIVERSITY OF WESTERN ONTARIO, published 2023)
